Reference: patent publication US7063946B2, “Methods, reagents, kits and apparatus for protein function analysis” (Meso Scale Technologies, LLC., priority 2001, dated 2006)
“And” between values parts separate entries of the source, which are not always exact repeats. Equal values may be shown once.

Tests used:
[1] = target: T1, IkB peptide (SEQ ID NO: 1) (Homo sapiens, UniProt P25963); assay: 96-well screen for phosphopeptide binding proteins, 7-spot IPR plates; conditions: two steps of normalization, top 9 clones
T1 construct: two phosphoserines in the DSGLDS motif (chemical modification); purchased New England Peptide, Fitchburg Mass; host or cells: chemical synthesis
Experimental: (§1) A screen was conducted using 7-spot IPR plates. The 7 spot NPT IPR plates are described in more detail in copending Provisional Application No. 60/301,932 (entitled “Assay Plates, Reader Systems and Methods for Luminescence Test Measurements”, filed on Jun. 29, 2001, hereby incorporated by reference) and particularly in the description of Plate Type D in Example 6.1 (NPT IPR plate) and U.S. application Ser. Nos. 10/185,274 and 10/185,363, filed Jun. 28, 2002, each hereby incorporated by reference. These plates consist of a 96 wells with 7 zones (spots) for the immobilization of proteins or other reagents. Each spot was coated with BSA conjugated to either a single phosphopeptide or multiple phosphopeptides.
(§2) The plates were prepared essentially as described in example 12. The seven spots supported, respectively, the following BSA conjugates IkB, pY992, pY1068, pY1148, Myc, “A”, and “6-P”. “A” refers to a conjugate of BSA with multiple peptides: IkB, pY1148, Myc which were then coupled to BSA. “6-P” refers to a conjugate of BSA with the following multiple peptides: IkB, pY1148, pY992, pY1068, Smad3C.
(§3) For the assay, 4 ul from TnT reaction product described above were added to the coated plate containing 50 μl of binding buffer supplemented with 50 ng/well Ru-Streptavidin. The binding reaction was allowed to proceed at room temperature for 1 hour with constant shaking. […] The ECL signals were measured using an imaging plate reader (IPR). The raw data from the IPR reader was then normalized using two steps of normalization. The first round was based on the 50 lowest values for a given specific spot. These 50 lowest values were averaged and divided into each signal for that spot to generate a signal value which could be compared readily between the peptide-conjugate spots. This was then followed by a second round of normalization using the lowest normalized value for a spot within a well to divide the signals from the other spots. This method provides a means to reduce the signals from proteins which bound non specifically to all the spots within a well. […]

[2] = target: T2, Myc peptide (SEQ ID NO: 4) (Homo sapiens, UniProt P01106); assay: as above; conditions: two steps of normalization; top 9 clones
T2 construct: phosphothreonine (T58) and phosphoserine (S62) (chemical modification); purchased New England Peptide, Fitchburg Mass; host or cells: chemical synthesis
Experimental: as §1, §2, §3

[3] = target: T3, Fert2 (Mus musculus, UniProt P70451); assay: Kinase inhibitor profiling, pEY phosphorylation; type: biochemical
T3 construct: specificity data for proteins generated from a library of eighteen full-length clones; host or cells: rabbit reticulocyte lysate, TnT coupled transcription/translation
T3 sequence (P70451 whole entry): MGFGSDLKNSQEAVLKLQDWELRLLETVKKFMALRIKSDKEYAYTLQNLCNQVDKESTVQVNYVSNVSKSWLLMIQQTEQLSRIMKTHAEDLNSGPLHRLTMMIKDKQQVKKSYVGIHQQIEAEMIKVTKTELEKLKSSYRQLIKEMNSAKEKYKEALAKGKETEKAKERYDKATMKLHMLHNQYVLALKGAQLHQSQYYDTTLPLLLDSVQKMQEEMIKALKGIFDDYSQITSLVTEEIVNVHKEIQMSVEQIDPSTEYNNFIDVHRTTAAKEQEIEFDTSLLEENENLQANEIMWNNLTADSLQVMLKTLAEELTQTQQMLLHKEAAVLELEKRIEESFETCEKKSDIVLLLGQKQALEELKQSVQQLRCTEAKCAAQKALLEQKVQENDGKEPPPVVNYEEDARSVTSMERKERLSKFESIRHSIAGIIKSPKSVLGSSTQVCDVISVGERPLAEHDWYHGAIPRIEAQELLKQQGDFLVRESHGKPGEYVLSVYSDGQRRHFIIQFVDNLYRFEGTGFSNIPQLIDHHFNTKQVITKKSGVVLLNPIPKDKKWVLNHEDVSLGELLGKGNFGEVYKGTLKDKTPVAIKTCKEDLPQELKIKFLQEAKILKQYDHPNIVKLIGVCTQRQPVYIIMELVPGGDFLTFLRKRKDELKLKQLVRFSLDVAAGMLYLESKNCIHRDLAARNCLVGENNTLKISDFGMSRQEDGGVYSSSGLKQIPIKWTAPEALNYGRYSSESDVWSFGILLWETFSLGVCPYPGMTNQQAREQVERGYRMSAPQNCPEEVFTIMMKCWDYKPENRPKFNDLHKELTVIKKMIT

T1 sequence (P25963 with tags, fused parts or gaps limits assumed): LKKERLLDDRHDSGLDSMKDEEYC
T2 sequence (P01106 with tags, fused parts or gaps limits assumed): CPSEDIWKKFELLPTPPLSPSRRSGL

normalized ECL signal, IkBa spot [1]	normalized ECL signal, IkBa spot ([1]; βTRCP positive control)	normalized ECL signal, Myc spot [2]	Molecule	Inhibition specificity towards pEY phosphorylation at 10X IC50, Fert2 [3]
12	23	4 and 8	3491843: IMAGE clone protein: βTRCP1 [compound 3491843]	–
–	–	–	COc1c(C=O)c(O)cc2c1C(=O)c1ccccc1C2=O [Damnacanthal]	L (low inhibition (“L”=between 50–75% of the activity remaining))
